Biological target: endogenous S. cerevisiae TREX complex (S. cerevisiae) (UniProt P17629)
Assay: negative-stain EM

Substance: endogenous S. cerevisiae TREX complex, P17629;P53552;P33441;O13539;P53851;Q07478;Q12159;P25555;P38922
- stoichiometry N: 2

Reference: article PMC10653388
